This is an account of results in publication PMC10978878 (Nature Communications, 2024).

Test [1] addresses BA.4 spike, recombinant trimeric S-twin-Strep, prefusion stabilized (SARS-CoV-2, UniProt P0DTC2). Put plainly: cryo-EM structure. Particulars: both partners purified.
In test [2] the target is BA.2.12.1 spike, recombinant trimer that retains the native sequence (SARS-CoV-2, UniProt P0DTC2). Put plainly: cryo-EM structure. The settings on record: both partners purified.

B1: SD1-1 Fab (Fab, V domains shown)
VH: QVQLVESGPGLVKPSETLSLTCSVSGGSIDNFYWSWIRQPPGKGLEWIGNIYYGGSGNYNPSLKSRVTISVDTSKNQVSLKLRSVTAADTAVYYCARDSVWYTGSYGLIYWGPGTLVTVSS
VL: SVVTQPASVSGSPGQSITISCTGTSSDVGSYNLVSWFQQHPGKAPKLMIYEVTKRPSGISNRFSGSKSGNTASLTISRLQAEDEADYYCCSYAGSSTVVFGGGTKLTVL
In the case of B1, the stoichiometry N (usually a count of units in the complex or per binding partner) in test [1] worked out at 3 Fab per spike trimer.

B2: SD1-2 Fab (Fab, V domains shown)
VH: QVQLVQSGPGLVKPSQTLSLTCSVSGDSISSGTYYWSWIRLPAGQGLEWIGRVHSSGSTSYNPSLKSRVTISVDTSKNNFSLKLSSVTAADTAVYYCVRLDNCSAGYCHAFDIWGQGTMVTVSS
VL: QSVLTQPASVSGSPGQSITISCTGTSSDVGSYNLVSWYQQHPGKAPKVMIYEVSKWPSGVSNRFSGSKSGNTASLTISGLQAEDEADYYCCSYAGSGTYVFGTGTKVTVL
With B2, the “stoichiometry N” value in test [2] came out at 3 Fab per spike trimer.

B3: SD1-3 Fab (Fab, V domains shown)
VH: QVQLVESGGGLVQPGGSLRLSCTASGVTFSSYAMSWVRQAPGKGLEWVSGISGSGDSTYYADSVKGRFTISRDNSKNTLYLQMNSLRVEDTAVYYCATHYCSGGSCPFDYWGQGTLVTVSS
VL: PSALTQPPSVSVSPGQTASITCSGDKLGNKYAYWYQQKPGQSPVLVIFQDTMRPSGIPERFSASNSGNTATLTISGTQSIDEADYYCQAWDSNTAVFGGGTKLTVL
As for B3, in test [2], the “stoichiometry N” value was 3 Fab per spike trimer.
